One assay addresses HLA-A*02:01. The assay is described as follows: IEDB peptide-MHC binding, purified MHC/competitive/fluorescence; ≥ and ≤ were set here for values at or beyond the usual limits of such assays.
The target of assay [1] is HLA-A*24:02. The assay is described as above.
The target in a further assay is HLA-B*07:02. The description is as above.
Assay [2] has as its target HLA-B*08:01. Described as above.
For assay [3], the target named is HLA-B*15:01. The assay is described as above.
Assay [4] concerns the target HLA-A*02:03. The assay is described as follows: IEDB peptide-MHC binding, purified MHC/direct/fluorescence; filed as Kd, often an IC50 or EC50 that approximates it; ≥ and ≤ were set here for values at or beyond the usual limits of such assays.
Another assay has as its target HLA-A*02:11. Described as above.
In a further assay the target is HLA-A*02:12. Described as above.
Assay [5] addresses HLA-A*69:01. The description is as above.
Assay [6] deals with HLA-B*18:01. Described as above. As to conditions: source organism: Yellow fever virus 1899/81.
The target in a further assay is HLA-B*15:42. The assay is described as follows: IEDB peptide-MHC binding, purified MHC/competitive/fluorescence; filed as Kd, often an IC50 or EC50 that approximates it; ≥ and ≤ were set here for values at or beyond the usual limits of such assays.
The target in another assay is HLA-B*45:06. Described as above.
Another assay concerns the target HLA-B*83:01. Described as above.
Assay [7] addresses HLA-B*08:01. The assay is described as follows: IEDB peptide-MHC binding, purified MHC/direct/fluorescence; filed as Kd, often an IC50 or EC50 that approximates it; ≥ and ≤ were set here for values at or beyond the usual limits of such assays. The following applies: source organism: Mycobacterium tuberculosis str. Haarlem.
Another assay deals with HLA-B*08:02. The assay is described as above.
For assay [8], the target named is HLA-A*24:02. The assay is described as follows: IEDB peptide-MHC binding, purified MHC/competitive/radioactivity; filed as Kd, often an IC50 or EC50 that approximates it; ≥ and ≤ were set here for values at or beyond the usual limits of such assays. The following applies: source organism: Dengue virus 4 Philippines/H241/1956.
The target in a further assay is HLA-B*53:01. The assay is described as above. The following applies: source organism: Dengue virus 4 Philippines/H241/1956.
Assay [9] concerns the target HLA-B*57:01. Described as above. The following applies: source organism: Dengue virus 4 Philippines/H241/1956.
The next assay addresses HLA-B*58:01. Described as above. As to conditions: source organism: Dengue virus 4 Philippines/H241/1956.
Another assay has as its target HLA-A*02:16. The assay is described as follows: IEDB peptide-MHC binding, purified MHC/direct/fluorescence; filed as Kd, often an IC50 or EC50 that approximates it; ≥ and ≤ were set here for values at or beyond the usual limits of such assays. As to conditions: source organism: Orthohantavirus tulaense.
The next assay deals with HLA-A*02:19. The description is as above.
The target of a further assay is HLA-A*24:03. Described as above. As to conditions: source organism: Orthohantavirus tulaense.
The next assay addresses HLA-A*68:02. The assay is described as above. As to conditions: source organism: Orthohantavirus tulaense.
The target in assay [10] is HLA-A*03:01. Briefly: IEDB peptide-MHC binding, purified MHC/competitive/fluorescence; filed as Kd, often an IC50 or EC50 that approximates it; ≥ and ≤ were set here for values at or beyond the usual limits of such assays. The following applies: source organism: Orthohantavirus tulaense.
The target in another assay is HLA-A*26:01. The description is as above. The following applies: source organism: Orthohantavirus tulaense.
The target of another assay is HLA-A*31:01. The description is as above.
Assay [11] deals with HLA-A*69:01. Described as above. As to conditions: source organism: Orthohantavirus tulaense.
The target of assay [12] is HLA-B*15:01. The description is as above. The following applies: source organism: Orthohantavirus tulaense.
The target in assay [13] is HLA-B*18:01. The assay is described as above. The following applies: source organism: Orthohantavirus tulaense.
A further assay has as its target HLA-B*27:03. The assay is described as above. As to conditions: source organism: Orthohantavirus tulaense.
A further assay addresses HLA-B*39:01. The description is as above. As to conditions: source organism: Orthohantavirus tulaense.
For another assay, the target named is HLA-B*46:01. The description is as above. The following applies: source organism: Orthohantavirus tulaense.
A further assay addresses HLA-B*51:01. The assay is described as above. The following applies: source organism: Orthohantavirus tulaense.
The target of assay [14] is HLA-B*57:01. The description is as above. The following applies: source organism: Orthohantavirus tulaense.
The target in assay [15] is HLA-A*02:03. The assay is described as follows: IEDB peptide-MHC binding, purified MHC/competitive/radioactivity; filed as Kd, often an IC50 or EC50 that approximates it; ≥ and ≤ were set here for values at or beyond the usual limits of such assays. As to conditions: source organism: Dengue virus 1 Brazil/97-11/1997.
In the next assay the target is HLA-A*02:17. Described as above. As to conditions: source organism: Dengue virus 1 Singapore/S275/1990.
Assay [16] concerns the target HLA-B*15:01. The assay is described as follows: IEDB peptide-MHC binding, purified MHC/direct/fluorescence; filed as Kd, often an IC50 or EC50 that approximates it; ≥ and ≤ were set here for values at or beyond the usual limits of such assays. As to conditions: source organism: Campylobacter jejuni.
Assay [17] has as its target HLA-A*03:01. The assay is described as above. As to conditions: source organism: Mammarenavirus lassaense.
The target of a further assay is HLA-A*11:01. The description is as above. As to conditions: source organism: Mammarenavirus lassaense.
Setting [18] is: source organism: Vaccinia virus.
Setting [19] is: source organism: Mycobacterium tuberculosis str. Haarlem.
[20] abbreviates: source organism: Yellow fever virus 1899/81.
The mark [21] stands for this setting: source organism: Vaccinia virus Copenhagen.
Setting [22] is: source organism: Zaire ebolavirus.
Where [23] appears, read: source organism: Orthohantavirus tulaense.
[24] abbreviates: source organism: dengue virus type 3.
The mark [25] stands for this setting: source organism: Mopeia Lassa virus reassortant 29.

Where only a bound is given, the exact number is not on record here.

Usually IC50 stands for the midpoint of a concentration-inhibition curve. A low value points to greater potency in that assay. For the sequence GMLRFANPL, the IC50 with HLA-A*02:01 (setting [18]) amounted to 0.651 µM; in the assay with HLA-A*24:02 [1] (setting [18]) it was 8.07 µM; with HLA-B*07:02 (setting [18]), 5.38 µM; in the assay with HLA-B*08:01 [2] (setting [18]) it was 11.8 µM; with HLA-B*15:01 [3] (setting [18]), 1.69 µM.
A word on the Kd: it is the constant that tells how readily two partners part at equilibrium. With ALFPIIWAL, the Kd was 0.003 µM with HLA-A*02:03 [4] (setting [19]), not above 0.001 µM with HLA-A*02:11 (setting [19]), 0.004 µM with HLA-A*02:12 (setting [19]) and 0.536 µM with HLA-A*69:01 [5] (source organism: Mycobacterium tuberculosis).
On to HEVNGTWMI, for which the Kd with HLA-B*18:01 [6] is 0.009 µM; with HLA-B*15:42 (setting [20]), not below 5 µM; with HLA-B*45:06 (setting [20]), not below 5 µM; with HLA-B*83:01 (setting [20]), not below 5 µM.
In the assay with HLA-B*07:02 (setting [21]), INKLNGAMV came in with an IC50 not below 74.2 µM.
Turning to TLRRRFAVA, the Kd with HLA-B*08:01 [7] was 0.012 µM; with HLA-B*08:02 (setting [19]), not below 20 µM.
For the sequence VTMTLWYMW, the dissociation constant (Kd) was 0.0317 µM with HLA-A*24:02 [8], 2.54 µM in the assay with HLA-B*53:01, 0.00752 µM with HLA-B*57:01 [9] and 0.00159 µM with HLA-B*58:01.
Take TNQLRSVGL: the IC50 in the assay with HLA-B*07:02 (setting [22]) came out at 64.3 µM; in the assay with HLA-B*08:01 [2] (setting [22]), 32.9 µM.
Turning to ILRSIEGEL, the values for the IC50 with HLA-B*07:02 (setting [21]), with HLA-B*08:01 [2] (setting [21]) and with HLA-B*15:01 [3] (setting [21]) were 33.9 µM, not below 524 µM and 39.8 µM, respectively.
As to WISHRPVVL, the IC50 in the assay with HLA-A*02:01 (source organism: Variola virus) was determined as 1.11 µM; in the assay with HLA-A*24:02 [1] (source organism: Variola virus), 21.5 µM; in the assay with HLA-B*07:02 (source organism: Variola virus), 7.13 µM; with HLA-B*08:01 [2] (source organism: Variola virus), 25.7 µM.
In the case of ILKERKQAL, the Kd with HLA-B*08:02 (source organism: Listeria monocytogenes serotype 4b str. H7858) came out at 1.62 µM.
Consider YLFGGFSTL, for which the IC50 with HLA-B*07:02 (source organism: Variola virus) is 7.61 µM; in the assay with HLA-B*08:01 [2] (source organism: Variola virus), not below 273 µM; with HLA-B*15:01 [3] (source organism: Variola virus), 3.33 µM.
With QLREAATEA, the IC50 with HLA-A*02:01 (setting [22]) was 20 µM; in the assay with HLA-B*07:02 (setting [22]), 28.2 µM; with HLA-B*08:01 [2] (setting [22]) it was not below 192 µM; in the assay with HLA-B*15:01 [3] (setting [22]) it was 62.1 µM.
In the case of ILMARYMSK, the Kd in the assay with HLA-A*02:03 [4] (setting [23]), with HLA-A*02:11 (setting [23]), with HLA-A*02:12 (setting [23]), with HLA-A*02:16, in the assay with HLA-A*02:19 (setting [23]) and with HLA-A*24:03 was not below 20 µM throughout. Besides, the Kd with HLA-A*68:02 is not below 20 µM; with HLA-A*03:01 [10] it was 0.0628 µM; in the assay with HLA-A*26:01 it was not below 20 µM; with HLA-A*31:01 (setting [23]) it was 0.0152 µM; in the assay with HLA-A*69:01 [11] it was not below 20 µM; with HLA-B*15:01 [12] it was not below 20 µM. For the same sequence, the Kd in the assay with HLA-B*15:42 (setting [23]) is not below 5 µM; with HLA-B*18:01 [13], not below 20 µM; in the assay with HLA-B*27:03, not below 20 µM; with HLA-B*39:01, not below 20 µM; with HLA-B*45:06 (setting [23]), not below 5 µM; with HLA-B*46:01, not below 20 µM. For the same sequence, the Kd was not below 20 µM in the assay with HLA-B*51:01, not below 20 µM in the assay with HLA-B*57:01 [14] and not below 5 µM with HLA-B*83:01 (setting [23]).
TLYAVATTV: the Kd with HLA-A*02:11 (setting [24]) was not above 0.001 µM; with HLA-A*02:12 (setting [24]), 0.005 µM; with HLA-A*02:19 (setting [24]), 0.01 µM; with HLA-A*02:03 [15], 0.0128 µM; with HLA-A*02:17, 1.62 µM.
On to SLNLAKEAV, for which the Kd was 0.003 µM in the assay with HLA-A*02:11 (source organism: Campylobacter jejuni subsp. jejuni HB93-13), 4.34 µM with HLA-A*69:01 [5] (source organism: Campylobacter jejuni) and not below 34 µM in the assay with HLA-B*15:01 [16].
As to RLKFSLSYK, the Kd with HLA-A*03:01 [17] was 0.0484 µM; with HLA-A*11:01, 0.0597 µM; with HLA-A*31:01 (setting [25]), 0.00717 µM; in the assay with HLA-B*15:42 (setting [25]), not below 5 µM; with HLA-B*45:06 (setting [25]), not below 5 µM; with HLA-B*83:01 (setting [25]) it was not below 5 µM.

The record behind these values is the Immune Epitope Database (IEDB).
